The results in this text go back to article PMC11310338.

The experiment has as its target phosphorylated CTD peptide (pS2pS5) of RNAP2 labeled with an NH2 terminal FITC group. As to the kind of experiment: fluorescence polarisation.

B1: SCAF8-CID domain fragment comprising residues 1-139 (domain or fragment)
chain: MEAVKTFNSELYSLNDYKPPISKAKMTQITKAAIKAIKFYKHVVQSVEKFIQKCKPEYKVPGLYVIDSIVRQSRHQFGQEKDVFAPRFSNNIISTFQNLYRCPGDDKSKIVRVLNLWQKNNVFKSEIIQPLLDMAAGIP
The term Kd denotes the equilibrium constant for the complex coming apart. Read a low Kd as tighter binding. The molecule B1 showed a Kd of 622 nM.

B2: Human SCAF4-CID domain fragment comprising residues 1-139 (domain or fragment)
chain: MDAVNAFNQELFSLMDMKPPISRAKMILITKAAIKAIKLYKHVVQIVEKFIKKCKPEYKVPGLYVIDSIVRQSRHQFGTDKDVFGPRFSKNITATFQYLYLCPSEDKSKIVRVLNLWQKNGVFKIEIIQPLLDMAAGTS
The molecule B2 had a Kd of 366 nM.
